Reference: patent US20240343771A1 (Chugai, published 2024)

T1: human IL-12 (human, UniProt P29460 23-328; P29459 23-219)
T1 construct: also called Interleukin-12
T1 sequence 1: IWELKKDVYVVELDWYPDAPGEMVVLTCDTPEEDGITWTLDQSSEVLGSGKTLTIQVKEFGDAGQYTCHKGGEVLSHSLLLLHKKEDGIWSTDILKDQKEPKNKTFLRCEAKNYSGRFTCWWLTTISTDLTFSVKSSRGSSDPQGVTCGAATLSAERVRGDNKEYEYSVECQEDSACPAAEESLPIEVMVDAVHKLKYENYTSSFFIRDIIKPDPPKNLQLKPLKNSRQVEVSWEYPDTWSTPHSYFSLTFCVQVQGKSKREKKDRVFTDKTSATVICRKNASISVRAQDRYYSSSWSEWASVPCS
T1 sequence 2: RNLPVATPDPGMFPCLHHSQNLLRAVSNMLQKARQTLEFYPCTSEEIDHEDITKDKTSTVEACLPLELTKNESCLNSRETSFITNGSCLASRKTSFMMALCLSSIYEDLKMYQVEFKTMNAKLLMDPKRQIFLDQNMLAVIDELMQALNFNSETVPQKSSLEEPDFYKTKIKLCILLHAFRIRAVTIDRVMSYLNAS


Biological target: T1, human IL-12
Assay: SPR (Biacore T200), 37 C, pH 7.4; captured antibody, IL-12 analyte
Procedure: The affinity of anti-IL-12 antibodies binding to human IL-12 at pH 7.4 were determined at 37 degrees C. using Biacore T200 instrument (Cytiva). Anti-human Fc antibody (Cytiva) was immobilized onto all flow cells (FCs) of a CM4 sensor chip using amine coupling kit (Cytiva). All antibodies and analytes were prepared in ACES pH 7.4 containing 20 mM ACES, 150 mM NaCl, 0.05% Tween 20, 0.005% NaN₃. Each antibody was captured onto the sensor surface by anti-human Fc antibody. Antibody capture levels were aimed at 50 response unit (RU). 5 nM of human IL-12 were injected as analyte, followed by dissociation. Sensor surface was regenerated each cycle with 3M MgCl₂. […] Based on the results in Table 9, it is observed that binding kinetics of anti-IL-12 antibody AbI variants towards IL-12 were not drastically changed compared to control (−/−).

Row | Binder | Kd [nM]
1 | Anti-IL-12 antibody Ab1 variant V37S VH/Y49A, Y87L VL (antibody, name in Kabat numbering, V domains shown, Ab1 with VH/VL interface substitutions; Kabat numbering) VH: QVQLVQSGAEVKKPGSSVKVSCKASGGTFSDYYLHWSRQAPGQGLEWMGWIDPENGDTEYAPKFQGRVTITADESTSTAYMELSSLRSEDTAVYYCARNKELRYFDVWGQGTLVTVSS VL: DIVMTQSPLSLPVTPGEPASISCRASQSISINLHWYQQKPGQAPRLLIAFASQSISGVPSRFSGSGSGTDFTLTISSLQPEDFATYLCQQSNSFPLTFGQGTKVEIKR | 3.04
2 | Anti-IL-12 antibody Ab1 variant V37S, F100aI VH/A43Q, Y49A VL (antibody, name in Kabat numbering, V domains shown, Ab1 with VH/VL interface substitutions; Kabat numbering) VH: QVQLVQSGAEVKKPGSSVKVSCKASGGTFSDYYLHWSRQAPGQGLEWMGWIDPENGDTEYAPKFQGRVTITADESTSTAYMELSSLRSEDTAVYYCARNKELRYIDVWGQGTLVTVSS VL: DIVMTQSPLSLPVTPGEPASISCRASQSISINLHWYQQKPGQQPRLLIAFASQSISGVPSRFSGSGSGTDFTLTISSLQPEDFATYYCQQSNSFPLTFGQGTKVEIKR | 1.12
3 | Anti-IL-12 antibody Ab1 variant V37S, F100aI VH/L46Q, Y49A VL (antibody, name in Kabat numbering, V domains shown, Ab1 with VH/VL interface substitutions; Kabat numbering) VH: QVQLVQSGAEVKKPGSSVKVSCKASGGTFSDYYLHWSRQAPGQGLEWMGWIDPENGDTEYAPKFQGRVTITADESTSTAYMELSSLRSEDTAVYYCARNKELRYIDVWGQGTLVTVSS VL: DIVMTQSPLSLPVTPGEPASISCRASQSISINLHWYQQKPGQAPRQLIAFASQSISGVPSRFSGSGSGTDFTLTISSLQPEDFATYYCQQSNSFPLTFGQGTKVEIKR | 2.98
4 | Anti-IL-12 antibody Ab1 variant V37S, L45Q VH/A43Q, Y49A VL (antibody, name in Kabat numbering, V domains shown, Ab1 with VH/VL interface substitutions; Kabat numbering) VH: QVQLVQSGAEVKKPGSSVKVSCKASGGTFSDYYLHWSRQAPGQGQEWMGWIDPENGDTEYAPKFQGRVTITADESTSTAYMELSSLRSEDTAVYYCARNKELRYFDVWGQGTLVTVSS VL: DIVMTQSPLSLPVTPGEPASISCRASQSISINLHWYQQKPGQQPRLLIAFASQSISGVPSRFSGSGSGTDFTLTISSLQPEDFATYYCQQSNSFPLTFGQGTKVEIKR | 3.13
5 | Anti-IL-12 antibody Ab1 variant V37S, L45Q VH/Y49A, Y87M VL (antibody, name in Kabat numbering, V domains shown, Ab1 with VH/VL interface substitutions; Kabat numbering) VH: QVQLVQSGAEVKKPGSSVKVSCKASGGTFSDYYLHWSRQAPGQGQEWMGWIDPENGDTEYAPKFQGRVTITADESTSTAYMELSSLRSEDTAVYYCARNKELRYFDVWGQGTLVTVSS VL: DIVMTQSPLSLPVTPGEPASISCRASQSISINLHWYQQKPGQAPRLLIAFASQSISGVPSRFSGSGSGTDFTLTISSLQPEDFATYMCQQSNSFPLTFGQGTKVEIKR | 2.92
6 | Anti-IL-12 antibody Ab1 variant V37S, W103M VH/A43Q, Y49A VL (antibody, name in Kabat numbering, Ab1 with VH/VL interface substitutions; Kabat numbering) heavy: not shown light: DIVMTQSPLSLPVTPGEPASISCRASQSISINLHWYQQKPGQQPRLLIAFASQSISGVPSRFSGSGSGTDFTLTISSLQPEDFATYYCQQSNSFPLTFGQGTKVEIKRTVAAPSVFIFPPSDEQLKSGTASVVCLLNNFYPREAKVQWKVDNALQSGNSQESVTEQDSKDSTYSLSSTLTLSKADYEKHKVYACEVTHQGLSSPVTKSFNRGEC | 0.828
7 | Anti-IL-12 antibody Ab1 variant V37S, Y91M VH/A43Q, Y49A VL (antibody, name in Kabat numbering, V domains shown, Ab1 with VH/VL interface substitutions; Kabat numbering) VH: QVQLVQSGAEVKKPGSSVKVSCKASGGTFSDYYLHWSRQAPGQGLEWMGWIDPENGDTEYAPKFQGRVTITADESTSTAYMELSSLRSEDTAVYMCARNKELRYFDVWGQGTLVTVSS VL: DIVMTQSPLSLPVTPGEPASISCRASQSISINLHWYQQKPGQQPRLLIAFASQSISGVPSRFSGSGSGTDFTLTISSLQPEDFATYYCQQSNSFPLTFGQGTKVEIKR | 1.79
8 | Anti-IL-12 antibody Ab1 variant V37S, Y91M VH/L46Q, Y49A VL (antibody, name in Kabat numbering, V domains shown, Ab1 with VH/VL interface substitutions; Kabat numbering) VH: QVQLVQSGAEVKKPGSSVKVSCKASGGTFSDYYLHWSRQAPGQGLEWMGWIDPENGDTEYAPKFQGRVTITADESTSTAYMELSSLRSEDTAVYMCARNKELRYFDVWGQGTLVTVSS VL: DIVMTQSPLSLPVTPGEPASISCRASQSISINLHWYQQKPGQAPRQLIAFASQSISGVPSRFSGSGSGTDFTLTISSLQPEDFATYYCQQSNSFPLTFGQGTKVEIKR | 3.44
9 | Anti-IL-12 antibody Ab1 variant W103A VH/- (antibody, name in Kabat numbering, Ab1 with VH/VL interface substitutions; Kabat numbering) heavy: not shown light: DIVMTQSPLSLPVTPGEPASISCRASQSISINLHWYQQKPGQAPRLLIYFASQSISGVPSRFSGSGSGTDFTLTISSLQPEDFATYYCQQSNSFPLTFGQGTKVEIKRTVAAPSVFIFPPSDEQLKSGTASVVCLLNNFYPREAKVQWKVDNALQSGNSQESVTEQDSKDSTYSLSSTLTLSKADYEKHKVYACEVTHQGLSSPVTKSFNRGEC | 0.331
10 | Anti-IL-12 antibody Ab1 variant W103I VH/A43Q, Y49A VL (antibody, name in Kabat numbering, Ab1 with VH/VL interface substitutions; Kabat numbering) heavy: not shown light: DIVMTQSPLSLPVTPGEPASISCRASQSISINLHWYQQKPGQQPRLLIAFASQSISGVPSRFSGSGSGTDFTLTISSLQPEDFATYYCQQSNSFPLTFGQGTKVEIKRTVAAPSVFIFPPSDEQLKSGTASVVCLLNNFYPREAKVQWKVDNALQSGNSQESVTEQDSKDSTYSLSSTLTLSKADYEKHKVYACEVTHQGLSSPVTKSFNRGEC | 1.6
11 | Anti-IL-12 antibody Ab1 variant W103I VH/L46Q, Y49A VL (antibody, name in Kabat numbering, Ab1 with VH/VL interface substitutions; Kabat numbering) heavy: not shown light: DIVMTQSPLSLPVTPGEPASISCRASQSISINLHWYQQKPGQAPRQLIAFASQSISGVPSRFSGSGSGTDFTLTISSLQPEDFATYYCQQSNSFPLTFGQGTKVEIKRTVAAPSVFIFPPSDEQLKSGTASVVCLLNNFYPREAKVQWKVDNALQSGNSQESVTEQDSKDSTYSLSSTLTLSKADYEKHKVYACEVTHQGLSSPVTKSFNRGEC | 4.86
12 | Anti-IL-12 antibody Ab1 variant W103I VH/P44A, Y49A VL (antibody, name in Kabat numbering, Ab1 with VH/VL interface substitutions; Kabat numbering) heavy: not shown light: DIVMTQSPLSLPVTPGEPASISCRASQSISINLHWYQQKPGQAARLLIAFASQSISGVPSRFSGSGSGTDFTLTISSLQPEDFATYYCQQSNSFPLTFGQGTKVEIKRTVAAPSVFIFPPSDEQLKSGTASVVCLLNNFYPREAKVQWKVDNALQSGNSQESVTEQDSKDSTYSLSSTLTLSKADYEKHKVYACEVTHQGLSSPVTKSFNRGEC | 1.57
13 | Anti-IL-12 antibody Ab1 variant W103L VH/- (antibody, name in Kabat numbering, Ab1 with VH/VL interface substitutions; Kabat numbering) heavy: not shown light: DIVMTQSPLSLPVTPGEPASISCRASQSISINLHWYQQKPGQAPRLLIYFASQSISGVPSRFSGSGSGTDFTLTISSLQPEDFATYYCQQSNSFPLTFGQGTKVEIKRTVAAPSVFIFPPSDEQLKSGTASVVCLLNNFYPREAKVQWKVDNALQSGNSQESVTEQDSKDSTYSLSSTLTLSKADYEKHKVYACEVTHQGLSSPVTKSFNRGEC | 0.549
14 | Anti-IL-12 antibody Ab1 variant W103L VH/A43Q, Y49A VL (antibody, name in Kabat numbering, Ab1 with VH/VL interface substitutions; Kabat numbering) heavy: not shown light: DIVMTQSPLSLPVTPGEPASISCRASQSISINLHWYQQKPGQQPRLLIAFASQSISGVPSRFSGSGSGTDFTLTISSLQPEDFATYYCQQSNSFPLTFGQGTKVEIKRTVAAPSVFIFPPSDEQLKSGTASVVCLLNNFYPREAKVQWKVDNALQSGNSQESVTEQDSKDSTYSLSSTLTLSKADYEKHKVYACEVTHQGLSSPVTKSFNRGEC | 1.12
15 | Anti-IL-12 antibody Ab1 variant W103L VH/L46Q, Y49A VL (antibody, name in Kabat numbering, Ab1 with VH/VL interface substitutions; Kabat numbering) heavy: not shown light: DIVMTQSPLSLPVTPGEPASISCRASQSISINLHWYQQKPGQAPRQLIAFASQSISGVPSRFSGSGSGTDFTLTISSLQPEDFATYYCQQSNSFPLTFGQGTKVEIKRTVAAPSVFIFPPSDEQLKSGTASVVCLLNNFYPREAKVQWKVDNALQSGNSQESVTEQDSKDSTYSLSSTLTLSKADYEKHKVYACEVTHQGLSSPVTKSFNRGEC | 3.86
16 | Anti-IL-12 antibody Ab1 variant W103L VH/P44A, Y49A VL (antibody, name in Kabat numbering, Ab1 with VH/VL interface substitutions; Kabat numbering) heavy: not shown light: DIVMTQSPLSLPVTPGEPASISCRASQSISINLHWYQQKPGQAARLLIAFASQSISGVPSRFSGSGSGTDFTLTISSLQPEDFATYYCQQSNSFPLTFGQGTKVEIKRTVAAPSVFIFPPSDEQLKSGTASVVCLLNNFYPREAKVQWKVDNALQSGNSQESVTEQDSKDSTYSLSSTLTLSKADYEKHKVYACEVTHQGLSSPVTKSFNRGEC | 1.34
17 | Anti-IL-12 antibody Ab1 variant W103L VH/Y49A, Y87L VL (antibody, name in Kabat numbering, Ab1 with VH/VL interface substitutions; Kabat numbering) heavy: not shown light: DIVMTQSPLSLPVTPGEPASISCRASQSISINLHWYQQKPGQAPRLLIAFASQSISGVPSRFSGSGSGTDFTLTISSLQPEDFATYLCQQSNSFPLTFGQGTKVEIKRTVAAPSVFIFPPSDEQLKSGTASVVCLLNNFYPREAKVQWKVDNALQSGNSQESVTEQDSKDSTYSLSSTLTLSKADYEKHKVYACEVTHQGLSSPVTKSFNRGEC | 1.51
18 | Anti-IL-12 antibody Ab1 variant W103M VH/- (antibody, name in Kabat numbering, Ab1 with VH/VL interface substitutions; Kabat numbering) heavy: not shown light: DIVMTQSPLSLPVTPGEPASISCRASQSISINLHWYQQKPGQAPRLLIYFASQSISGVPSRFSGSGSGTDFTLTISSLQPEDFATYYCQQSNSFPLTFGQGTKVEIKRTVAAPSVFIFPPSDEQLKSGTASVVCLLNNFYPREAKVQWKVDNALQSGNSQESVTEQDSKDSTYSLSSTLTLSKADYEKHKVYACEVTHQGLSSPVTKSFNRGEC | 0.631
19 | Anti-IL-12 antibody Ab1 variant W103M VH/A43Q, Y49A VL (antibody, name in Kabat numbering, Ab1 with VH/VL interface substitutions; Kabat numbering) heavy: not shown light: DIVMTQSPLSLPVTPGEPASISCRASQSISINLHWYQQKPGQQPRLLIAFASQSISGVPSRFSGSGSGTDFTLTISSLQPEDFATYYCQQSNSFPLTFGQGTKVEIKRTVAAPSVFIFPPSDEQLKSGTASVVCLLNNFYPREAKVQWKVDNALQSGNSQESVTEQDSKDSTYSLSSTLTLSKADYEKHKVYACEVTHQGLSSPVTKSFNRGEC | 1.45
20 | Anti-IL-12 antibody Ab1 variant W103M VH/L46Q, Y49A VL (antibody, name in Kabat numbering, Ab1 with VH/VL interface substitutions; Kabat numbering) heavy: not shown light: DIVMTQSPLSLPVTPGEPASISCRASQSISINLHWYQQKPGQAPRQLIAFASQSISGVPSRFSGSGSGTDFTLTISSLQPEDFATYYCQQSNSFPLTFGQGTKVEIKRTVAAPSVFIFPPSDEQLKSGTASVVCLLNNFYPREAKVQWKVDNALQSGNSQESVTEQDSKDSTYSLSSTLTLSKADYEKHKVYACEVTHQGLSSPVTKSFNRGEC | 3.52
